For this experiment, the target named is CY5-CAS9:sgRNA complex (1:1 molar ratio) (S. pyogenes), Q99ZW2. Put plainly: fluorescence titration; 5 nM CY5-CAS9:sgRNA (1:1) titrated with peptide, quadratic fit. To be noted: remark: other sources report otherwise.

Experimental findings from patent EP3464323B1 are described below.

By Kd is commonly meant the concentration at which binding is half-saturated.

No end group written: not given here.

Sequence of CY5-CAS9:sgRNA complex (1:1 molar ratio) (S. pyogenes), Q99ZW2 (Q99ZW2 whole entry, one chain of several): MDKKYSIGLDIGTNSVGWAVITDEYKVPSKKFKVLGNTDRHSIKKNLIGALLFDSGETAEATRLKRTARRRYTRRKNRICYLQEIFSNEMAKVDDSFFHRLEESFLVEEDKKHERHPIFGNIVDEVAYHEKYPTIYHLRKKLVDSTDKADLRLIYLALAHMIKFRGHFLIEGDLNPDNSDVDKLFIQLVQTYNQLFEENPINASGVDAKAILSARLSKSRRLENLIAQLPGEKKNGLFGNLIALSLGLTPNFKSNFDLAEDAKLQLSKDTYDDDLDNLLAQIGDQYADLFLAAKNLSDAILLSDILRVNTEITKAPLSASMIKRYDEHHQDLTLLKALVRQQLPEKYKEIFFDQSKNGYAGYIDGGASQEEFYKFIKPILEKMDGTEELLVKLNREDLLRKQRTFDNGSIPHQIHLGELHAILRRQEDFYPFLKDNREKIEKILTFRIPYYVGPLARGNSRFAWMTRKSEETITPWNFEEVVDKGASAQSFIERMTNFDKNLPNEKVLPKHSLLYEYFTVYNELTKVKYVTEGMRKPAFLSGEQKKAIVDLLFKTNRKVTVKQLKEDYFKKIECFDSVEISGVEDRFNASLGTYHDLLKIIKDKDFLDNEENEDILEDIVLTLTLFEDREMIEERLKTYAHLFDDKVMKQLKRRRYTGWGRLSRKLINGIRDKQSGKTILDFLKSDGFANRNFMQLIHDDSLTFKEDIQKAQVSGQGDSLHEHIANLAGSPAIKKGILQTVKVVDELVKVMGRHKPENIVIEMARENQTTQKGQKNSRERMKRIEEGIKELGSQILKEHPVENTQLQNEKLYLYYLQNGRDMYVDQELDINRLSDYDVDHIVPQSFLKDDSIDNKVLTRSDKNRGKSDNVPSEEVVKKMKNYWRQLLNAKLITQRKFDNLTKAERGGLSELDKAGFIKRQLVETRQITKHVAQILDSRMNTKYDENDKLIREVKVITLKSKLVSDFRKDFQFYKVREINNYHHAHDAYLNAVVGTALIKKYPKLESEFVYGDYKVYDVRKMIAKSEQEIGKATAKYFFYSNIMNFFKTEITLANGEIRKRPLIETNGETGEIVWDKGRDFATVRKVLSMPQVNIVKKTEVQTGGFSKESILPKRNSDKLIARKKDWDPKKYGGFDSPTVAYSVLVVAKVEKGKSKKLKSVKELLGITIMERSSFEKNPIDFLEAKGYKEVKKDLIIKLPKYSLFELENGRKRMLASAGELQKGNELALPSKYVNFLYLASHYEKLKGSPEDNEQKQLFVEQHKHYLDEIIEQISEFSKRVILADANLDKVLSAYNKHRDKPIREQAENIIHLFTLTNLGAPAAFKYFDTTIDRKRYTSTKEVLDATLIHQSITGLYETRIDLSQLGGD

Turning to GLWRALWRLLRSLWRLLWKV (also: acetate salt) [CADY], the Kd came out at 21 nM.
